# Results taken from patent US7374919B2 (GlycoZym ApS, priority 1998, dated 2008).
# T1: β4Gal-T2 (Homo sapiens, UniProt O60909)
# T1 construct: An expression construct designed to encode amino acid residues 31-372 of β4Gal-T2 was prepared by RT-PCR; secretion signal of vector pAcGP67 (gp67 leader; own knowledge of the vector) (N); made in house; host or cells: Sf9 (Spodoptera frugiperda) cells, baculovirus; unpurified culture supernatant
# T1 sequence (O60909 31-372): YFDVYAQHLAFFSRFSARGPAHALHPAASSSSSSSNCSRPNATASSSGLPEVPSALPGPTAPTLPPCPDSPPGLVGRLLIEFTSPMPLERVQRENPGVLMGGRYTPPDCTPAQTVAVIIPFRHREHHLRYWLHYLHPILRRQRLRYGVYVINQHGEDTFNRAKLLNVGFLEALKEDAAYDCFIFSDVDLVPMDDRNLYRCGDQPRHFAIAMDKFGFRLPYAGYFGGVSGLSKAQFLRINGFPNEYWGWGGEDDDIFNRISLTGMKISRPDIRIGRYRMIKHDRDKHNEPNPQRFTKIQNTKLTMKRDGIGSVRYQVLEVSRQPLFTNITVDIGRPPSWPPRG
# T2: Bovine milk β4Gal-T (Bos taurus, UniProt P08037)
# T2 construct: Purified bovine milk enzyme; purchased Sigma; host or cells: bovine milk
# T2 sequence (P08037 79-402 limits assumed): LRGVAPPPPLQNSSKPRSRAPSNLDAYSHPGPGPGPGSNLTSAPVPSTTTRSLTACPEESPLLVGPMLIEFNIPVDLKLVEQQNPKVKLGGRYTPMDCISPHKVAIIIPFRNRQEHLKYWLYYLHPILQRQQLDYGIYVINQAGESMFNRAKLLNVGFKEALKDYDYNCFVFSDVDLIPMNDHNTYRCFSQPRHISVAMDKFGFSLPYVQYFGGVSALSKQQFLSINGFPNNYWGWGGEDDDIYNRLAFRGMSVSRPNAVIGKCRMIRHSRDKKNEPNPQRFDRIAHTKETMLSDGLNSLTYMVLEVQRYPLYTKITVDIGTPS
# B1: Hen egg albumin: glycoprotein acceptor, hen egg Ovalbumin (Sigma) (protein, UniProt P01012 2-386, looked up)
# Ovalbumin: GSIGAASMEFCFDVFKELKVHHANENIFYCPIAIMSALAMVYLGAKDSTRTQINKVVRFDKLPGFGDSIEAQCGTSVNVHSSLRDILNQITKPNDVYSFSLASRLYAEERYPILPEYLQCVKELYRGGLEPINFQTAADQARELINSWVESQTNGIIRNVLQPSSVDSQTAMVLVNAIVFKGLWEKAFKDEDTQAMPFRVTEQESKPVQMMYQIGLFRVASMASEKMKILELPFASGTMSMLVLLPDEVSGLEQLESIINFEKLTEWTSSNVMEERKIKVYLPRMKMEEKYNLTSVLMAMGITDVFSSSANLSGISSAESLKISQAVHAAHAEINEAGREVVGSAEAGVDAASVSEEFRADHPFLFCIKHIATNAVLFFGRCVSP
# Assays:
# Format in all cases: biochemical
# Details in all cases: glycoproteins at 10 mg/ml
# β4Gal-T2 = biological target: T1, β4Gal-T2; test: β4Gal-T2 galactosyltransferase activity assay (soluble enzyme, media of infected Sf9 cells)
# Text: (§1) The PCR product were cloned into the BamHI site of pAcGP67 (Pharmingen), and the construct sequenced to verify correct insertion and sequence. The plasmid pAcGP67-β4Gal-T2-sol was co-transfected with Baculo-Goldä DNA (Pharmingen) as described previously (Bennett et al., 1996). Recombinant Baculo-virus were obtained after two successive amplifications in Sf9 cells grown in serum-containing medium, and titres of virus were estimated by titration in 24-well plates with monitoring of enzyme activities. Controls included pAcGP67-β4Gal-T3-sol (Almeida et al., 1997) and pAcGP67-GalNAc-T3-sol (Bennett et al., 1996).
# (§2) Standard assays were performed in […] total reaction mixtures containing 25 mM Tris (pH 7.5), 10 mM MnCl2, 0.25% Triton X-100, […] UDP-[^14C]-Gal (2,300 cpm/nmol) (Amersham), and varying concentration of acceptor substrates (Sigma) (see Table I for structures). The soluble constructs were assayed with […] of culture supernatant from infected cells, whereas the full length construct was assayed with 1% Triton X-100 homogenates of washed cells. Bovine milk P1,4Gal-transferase (Sigma) was used as control.
# Reaction products were quantified by Dowex-1 chromatography. […] The transfer of Gal was evaluated after precipitation by filtration through Whatman GF/C glass fiber filters.
# β4Gal-T3 = biological target: T3, β4Gal-T3 (Homo sapiens, UniProt O60512); test: β4Gal-T3 galactosyltransferase activity assay (soluble enzyme, Sf9 media)
# T3 construct: media from Sf9 cells expressing secreted forms of either β4Gal-T2 or -T3 were used as enzyme sources; secretion signal of vector pAcGP67 (gp67 leader; own knowledge of the vector) (N); made in house; host or cells: Sf9 cells, baculovirus; unpurified culture supernatant
# Protocol: as §1, with “An expression construct designed to encode amino acid residues 31-372 of β4Gal-T2 was prepared by RT-PCR with mRNA from Colo205 cell line, using the primer pair EBER100FOR (5′-[…]; SEQ ID NO: 9) and EBER114 (5′-[…]; SEQ ID NO: 10) with BamH1 restriction sites (FIG. 2). The PCR” for “The PCR”
# as §2
# (§3) Reaction products were quantified by Dowex-1 chromatography. Assays with hen egg Ovalbumin (Sigma), asialo-fetuin (Sigma), and asialo-agalacto-fetuin (Sigma, treated with bgalactosidase) were performed with the standard reaction mixture modified to contain […] UDP-Gal, 54 mM NaCl, and 0.5 mg Ovalbumin. The transfer of Gal was evaluated after precipitation by filtration through Whatman GF/C glass fiber filters.
# Bovine milk β4Gal-T = biological target: T2, Bovine milk β4Gal-T; test: Bovine milk β4Gal-transferase activity assay (control enzyme)
# Protocol: as §2, §3
# T3 sequence (O60512 32-393 limits assumed): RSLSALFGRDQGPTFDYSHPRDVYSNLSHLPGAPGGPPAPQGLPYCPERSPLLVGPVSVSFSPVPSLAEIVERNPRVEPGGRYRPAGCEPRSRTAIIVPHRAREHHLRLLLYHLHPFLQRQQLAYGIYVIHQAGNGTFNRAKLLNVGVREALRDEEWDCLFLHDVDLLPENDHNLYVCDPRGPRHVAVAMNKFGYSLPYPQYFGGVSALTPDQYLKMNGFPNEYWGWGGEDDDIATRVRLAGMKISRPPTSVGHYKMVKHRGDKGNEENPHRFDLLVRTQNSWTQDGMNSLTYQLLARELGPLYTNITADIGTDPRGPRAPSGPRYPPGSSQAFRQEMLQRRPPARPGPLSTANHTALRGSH
molecule,measurement,setting,value
B1,β4Gal-T2 activity with acceptor substrate,β4Gal-T2,2.0 nmol/min/mL
same,β4Gal-T3 activity with acceptor substrate,β4Gal-T3,1.0 nmol/min/mL
same,Bovine milk β4Gal-T activity with acceptor substrate,Bovine milk β4Gal-T,0.7 nmol/min/µg
